Experimental data: PMC3520109 (mBio, 2012)

Columns and labels:
[1] = system: 43A-c; conditions: read-out: apparent Km; 100 mM citrate pH 6, 1 g/liter BSA, 50°C
[2] = substrate: O=[N+]([O-])c1ccc(O[C@@H]2O[C@H](CO)[C@@H](O)[C@H](O)[C@H]2O)cc1; assay: purified protein; conditions: 100 mM citrate pH 6, 1 g/liter BSA, 50°C

With `O=[N+]([O-])c1ccc(O[C@@H]2OC[C@@H](O)[C@H](O)[C@H]2O)cc1` [pNPX] the Km [1] was 600 µM.

B1: Bgl1C (Thermobifida fusca) (protein)
chain: TSQSTTPLGNLEETPKPDIRFPSDFVWGVATASFQIEGSTTADGRGPSIWDTFCATPGKVENGDTGDPACDHYNRYRDDVALMRELGVGAYRFSIAWPRIQPEGKGTPVEAGLDFYDRLVDCLLEAGIEPWPTLYHWDLPQALEDAGGWPNRDTAKRFADYAEIVYRRLGDRITNWNTLNEPWCSAFLGYASGVHAPGRQEPAAALAAAHHLMLGHGLAAAVMRDLAGQAGRSVRIGVAHNQTTVRPYTDSEADRDAARRIDALRNRIFTEPLVKGRYPEDLIEDVAAVTDYSFVQDGDLKTISANLDMMGVNFYNPSWVSGNRENGGSDRLPDEGYSPSVGSEHVVEVDPGLPVTAMGWPIDPTGLYDTLTRLANDYPGLPLYITENGAAFEDKVVDGAVHDTERIAYLDSHLRAAHAAIEAGVPLKGYFAWSFMDNFEWALGYGKRFGIVHVDYESQTRTVKDSGWWYSRVMRNGGIFGQE
Work on B1 yielded a Km [2] of 600 µM and a kcat [2] of 2.08 s⁻¹.
